Measurements taken from US20250346679A1 (INVOX PHARMA, published 2025).

What was measured:
[1] = biological target: T1, human CD137, cell-surface (human, UniProt Q07011 24-255); test: cell-based or functional assay
[2] = biological target: T2, cynomolgus CD137, cell-surface (cynomolgus, UniProt Q07011 24-255 (human entry)); test: cell-based or functional assay
T2 chain: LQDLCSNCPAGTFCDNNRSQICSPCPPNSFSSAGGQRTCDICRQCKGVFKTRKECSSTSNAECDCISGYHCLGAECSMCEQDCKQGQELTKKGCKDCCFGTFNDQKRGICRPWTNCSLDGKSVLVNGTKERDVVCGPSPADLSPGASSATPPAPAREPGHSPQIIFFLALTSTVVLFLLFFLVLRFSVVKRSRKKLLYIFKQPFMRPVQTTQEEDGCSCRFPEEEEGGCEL

[3] = biological target: T3, human PD-L1, cell-surface (human, UniProt Q9NZQ7 19-290); test: cell-based or functional assay
T3 sequence (Q9NZQ7 19-290): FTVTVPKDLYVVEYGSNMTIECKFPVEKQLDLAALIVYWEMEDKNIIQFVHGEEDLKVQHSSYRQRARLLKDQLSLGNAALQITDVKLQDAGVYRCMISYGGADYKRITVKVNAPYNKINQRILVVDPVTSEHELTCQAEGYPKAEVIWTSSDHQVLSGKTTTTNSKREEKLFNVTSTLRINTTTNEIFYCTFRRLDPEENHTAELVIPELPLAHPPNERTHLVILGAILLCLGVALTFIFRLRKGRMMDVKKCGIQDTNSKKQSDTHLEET

[4] = biological target: T1, human CD137, cell-surface; test: cell-based or functional assay; remark: listed apart in the source
[5] = biological target: T1, human CD137, cell-surface; test: cell-based or functional assay; remark: listed apart in the source
[6] = biological target: T3, human PD-L1, cell-surface; test: cell-based or functional assay; remark: listed apart in the source
[7] = biological target: T2, cynomolgus CD137, cell-surface; test: cell-based or functional assay
[8] = biological target: T4, cynomolgus PD-L1, cell-surface (cynomolgus); test: flow cytometry on HEK.cPD-L1
T4 construct: also called HEK.cPD-L1; HEK.cyPD-L1
T4 sequence (chain, as listed by the source limits assumed): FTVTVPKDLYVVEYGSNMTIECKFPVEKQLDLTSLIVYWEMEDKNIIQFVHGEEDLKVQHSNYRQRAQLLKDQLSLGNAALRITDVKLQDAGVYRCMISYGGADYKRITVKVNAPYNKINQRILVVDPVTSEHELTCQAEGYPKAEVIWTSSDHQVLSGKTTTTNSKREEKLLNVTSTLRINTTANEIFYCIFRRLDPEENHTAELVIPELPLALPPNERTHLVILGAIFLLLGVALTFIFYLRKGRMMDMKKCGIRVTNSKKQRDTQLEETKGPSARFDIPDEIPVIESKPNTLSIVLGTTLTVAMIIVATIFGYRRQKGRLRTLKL
Protocol: (§1) Non-specific binding was also assessed by testing binding to HEK293 parental cells lacking human PD-L1 (Flp-In T-Rex 293 cell line, Life Technologies, R780-07).
(§2) HEK293, HEK.hPD-L1 and HEK.cPD-L1 suspensions were prepared in FACS buffer (DPBS (Gibco, 14190-094) containing 0.5% BSA (Sigma, A7906)) and seeded at 1×10⁵ cell/well in 100 μl in round bottomed 96-well plates (VWR, 734-1797). […] The washed cells were resuspended in the diluted antibody mixture, incubated at 4° C. for 30 minutes, and then washed once in FACS buffer. […] Dead cells were excluded and the fluorescence in the APC channel (638 nm 660/20) was measured. The geometric mean fluorescence intensity (GMFI) values were plotted vs the log concentration of antibody and the resulting curves were fitted using the log (agonist) vs response equation in GraphPad Prism.

[9] = biological target: T3, human PD-L1, cell-surface; test: flow cytometry on HEK.hPD-L1
Protocol: as §1, §2

[10] = biological target: T5, biotinylated hPD-L1-Avi-His (Acro Biosystems, PD1-H82E5) (human, UniProt Q9NZQ7 19-238, biotinylated); test: SPR, mAb^2 captured on Protein A chip, antigen in flow
T5 construct: bought; also called Human PD-L1-His; not shown: Avi and His tags of the bought product
T5 sequence (Q9NZQ7 19-238): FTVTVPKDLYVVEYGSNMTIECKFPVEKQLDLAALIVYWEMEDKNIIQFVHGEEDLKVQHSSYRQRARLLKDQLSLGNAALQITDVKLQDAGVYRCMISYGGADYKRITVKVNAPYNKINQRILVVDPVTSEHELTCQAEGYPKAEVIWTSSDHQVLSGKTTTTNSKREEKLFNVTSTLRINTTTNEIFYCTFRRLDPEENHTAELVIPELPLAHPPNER
Protocol: (§3) Briefly, the anti-human CD137/PD-L1 mAb², diluted in HBS-EP buffer (GE Healthcare, BR100188) at 2 μg/ml, were injected individually on flows cell 2, 3 and 4 of a Protein A chip (GE Healthcare, 29127556) at 30 μl/min to achieve a final response of approximately 110 RU. Two different recombinant human PD-L1 antigens were used i.e. hPD-L1-His-Avi (see Example 1.3 for antigen details) and biotinylated hPD-L1-Avi-His (Acrobiosystems, PD-1-H82E5). Human and cynomolgus PD-L1-His (Acrobiosystems, PD-1-C52H4) antigens, diluted in HBS-EP buffer, were injected on flow cell 1, 2, 3 or 4 as appropriate at a concentration range of 81 nM to 0.037 nM with 3-fold dilutions for 4 min at 75 μl/min and then allowed to dissociate in buffer for 10 min. Regeneration was achieved by injecting 10 mM glycine-HCL pH1.5 (GE Healthcare, Human Antibody Capture Kit, BR00356) for 30 sec at a rate of 30 μl/min. Subtracted data (flow cell 2−flow cell 1, flow cell 3−flow cell 1, or flow cell 4−flow cell 1) were analysed using BIAevaluation 3.2 Software (GE Healthcare) to identify binding using the model 1:1 binding with mass transfer, with refractive index (RI) constant 0.

[11] = biological target: T6, cPD-L1-His (Acro Biosystems, PD1-C52H4) (cynomolgus, UniProt Q9NZQ7 19-238 (human entry)); test: as above
T6 construct: bought; also called Cyno PD-L1-His; Cynomolgus PD-L1-His; not shown: His tag of the bought product
T6 sequence (Q9NZQ7 other isoform, or with tags, fused parts or gaps): as the sequence (Q9NZQ7 19-238) above, with A33T, A34S, S62N, R68Q, Q82R, F173L, T185A, T192I, H215L counted along it
Protocol: as §3

hPD-L1-His-Avi = biological target: T7, hPD-L1-His-Avi (human); test: SPR, mAb^2 captured on immobilised human PD-L1 His, then hCD137-mFc-Avi (100 nM) in flow
T7 construct: also called human PD-L1-His Avi; Human PD-L1 His
T7 sequence (chain, as listed by the source limits assumed): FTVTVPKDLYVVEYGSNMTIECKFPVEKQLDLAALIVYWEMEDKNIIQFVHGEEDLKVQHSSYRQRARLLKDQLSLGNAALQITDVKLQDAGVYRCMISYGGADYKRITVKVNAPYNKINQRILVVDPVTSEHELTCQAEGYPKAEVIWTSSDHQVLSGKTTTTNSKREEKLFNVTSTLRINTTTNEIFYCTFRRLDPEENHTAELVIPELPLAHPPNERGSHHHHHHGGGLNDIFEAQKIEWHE

[12] = biological target: T3, human PD-L1, cell-surface; test: flow cytometry on activated primary human CD4+ T cells (carry PD-L1 and CD137); activated primary human CD4+ T cells (carry PD-L1 and little CD137)
Protocol: (§4) CD137 is rapidly expressed to high levels on activated CD8⁺ T cells and also on activated CD4⁺ T cells with lower levels (Xue-Zhong Yu et al, 2013), therefore Pan T cells were stimulated for 24 hours using Dynabeads™ Human T-Activator CD3/CD28 beads (Thermo, 11132D) according to manufacturer's instructions.
(§5) Dead cells were excluded and the fluorescence in the APC channel (638 nm 660/20) was measured to show test antibody binding. The geometric Mean Fluorescence Intensity (GMFI) values were plotted vs the log concentration of antibody and the resulting curves were fitted using the log (agonist) vs response equation in GraphPad Prism.

[13] = biological target: T3, human PD-L1, cell-surface; test: flow cytometry on activated primary human CD8+ T cells (carry PD-L1 and CD137); activated primary human CD8+ T cells (carry PD-L1 and little CD137)
Protocol: as §4, §5

B1: FS22-172-003-AA/E12v2 (bispecific antibody, human IgG1, kappa, L234A L235A)
heavy: EVQLVQSGAEVKRPGASVKVSCKASGYPFTSYGISWVRQAPGQGLEWMGWISAYSGGTNYAQKLQGRVTMTTDTSTSTAYMELRSLRSDDTAVYYCARDLFPTIFGVSYYYYWGQGTLVTVSSASTKGPSVFPLAPSSKSTSGGTAALGCLVKDYFPEPVTVSWNSGALTSGVHTFPAVLQSSGLYSLSSVVTVPSSSLGTQTYICNVNHKPSNTKVDKKVEPKSCDKTHTCPPCPAPEAAGGPSVFLFPPKPKDTLMISRTPEVTCVVVDVSHEDPEVKFNWYVDGVEVHNAKTKPREEQYNSTYRVVSVLTVLHQDWLNGKEYKCKVSNKALPAPIEKTISKAKGQPREPQVYTLPPSRDELPYIIPPYNQVSLTCLVKGFYPSDIAVEWESNGQPENNYKTTPPVLDSDGSFFLYSKLTVGADRWLEGNVFSCSVMHEALHNHYTQKSLSLSPG
light: DIQMTQSPSTLSASVRDRVIITCRASQSIGNRLAWYQHKPGKAPKLLIYEASTSETGVPSRFSGSGSGTDFTLTISSLQPEDFATYYCQQSYSTPYTFGQGTKLEIKRTVAAPSVFIFPPSDEQLKSGTASVVCLLNNFYPREAKVQWKVDNALQSGNSQESVTEQDSKDSTYSLSSTLTLSKADYEKHKVYACEVTHQGLSSPVTKSFNRGEC
notes: PD-L1 site in the Fab, CD137 site in the CH3, LALA; also called anti-human CD137/PD-L1 mAb^2
- EC50, IFN-γ release, human PBMC assay [1]: 0.03 nM
- EC50, IFN-γ release, cynomolgus PBMC assay [2]: 0.08 nM
- EC50 (nM), IFN-γ release, human MLR [3]: 0.02 nM
- Emax (pg/ml), IFN-γ release, human MLR [3]: 2630 pg/mL
- EC50 (nM), IFN-γ release, CEFT antigen recall assay (CD4+ T cell activation) [4]: 0.08 nM
- EC50 (nM), IFN-γ release, CEF antigen recall assay (CD8+ T cell activation) [5]: 0.03 nM
- EC50 (nM), mouse IL-2 release, DO11.10 / LK35.2 PD-L1 blockade assay [6]: 1.27 nM
- EC50 (nM) (crosslinked), mIL-2 release, DO11.10.cCD137 with HEK.cyPD-L1 [7]: 0.06 nM
- Emax (pg/ml) (crosslinked), mIL-2 release, DO11.10.cCD137 with HEK.cyPD-L1 [7]: 11300 pg/mL
- EC50 [8]: 0.7 nM
- EC50 [9]: 3.7 nM
- Kd [10]: 0.19 nM
- Kd [11]: 0.36 nM
- binding result (hPD-L1-His-Avi): binds
- EC50 [12]: 0.8 nM
- EC50 [13]: 0.9 nM
